The results in this text go back to patent US20230340160A1 (published 2023).

Experiment [1] concerns the target T1, murine FcγRIV (murine).
T1 construct: Captured on anti-Penta His antibody in SPR; also called muFcγRIV-aviHis-biotin
The experiment can be described thus: SPR (Biacore T100, 25 °C); receptor captured on anti-Penta His, construct as analyte; kinetic. On the procedure: (§1) For analyzing interaction of different Fc-variants with human FcγRIIIa-V158 and murine FcγRIV direct coupling of around 6,500 resonance units (RU) of the anti-Penta His antibody (Qiagen) is performed on a CM5 chip at pH 5.0 using the standard amine coupling kit (Biacore, Freiburg/Germany). HuFcγRIIIa-V158-K6H6 and muFcγRIV-aviHis-biotin are captured for 60 s at 4 and 10 nM respectively.
(§2) Constructs with different Fc-mutations are passed through the flow cells for 120 s at a concentration of 1000 nM with a flow rate of 30 µl/min. The dissociation is monitored for 220 s. Bulk refractive index differences are corrected for by subtracting the response obtained in a reference flow cell. Here, the Fc-variants are flown over a surface with immobilized anti-Penta His antibody but on which HBS-EP has been injected rather than HuFcγRIIIa-V158-K6H6 or muFcγRIV-aviHis-biotin. Affinity for human FcγRIIIa-V158 and murine FcγRIV was determined for wild-type Fc using a concentration range from 500 - 4000 nM.
(§3) The steady state response was used to derive the dissociation constant KD by non-linear curve fitting of the Langmuir binding isotherm. Kinetic constants were derived using the Biacore T100 Evaluation Software (vAA, Biacore AB, Uppsala/Sweden), to fit rate equations for 1:1 Langmuir binding by numerical integration.

For experiment [2], the target named is T2, human FcγRIIIa-V158 (human, UniProt P08637 17-208).
T2 construct: His-tagged recombinant receptor captured on anti-Penta His antibody in SPR; also called huFcγRIIIa-V158-K6H6; HuFcγRIIIa-V158-K6H6; not shown: K6H6 tag, named only by this short form
T2 sequence (P08637 17-208 F176V): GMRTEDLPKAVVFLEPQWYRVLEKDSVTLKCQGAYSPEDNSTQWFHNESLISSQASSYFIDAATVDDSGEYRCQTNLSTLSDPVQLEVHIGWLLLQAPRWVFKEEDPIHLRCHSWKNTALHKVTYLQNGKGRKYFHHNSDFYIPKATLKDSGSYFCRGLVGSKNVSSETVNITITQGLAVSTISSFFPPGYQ
In words: SPR (Biacore T100, 25 °C); receptor captured on anti-Penta His, construct as analyte; kinetic; second value in parentheses, not explained. As for the experimental part:
as §1, §2, §3

Experiment [3] has as its target T2, human FcγRIIIa-V158. The experiment can be described thus: SPR (Biacore T100, 25 °C); His-tagged receptor captured on anti-Penta His, construct as analyte; kinetic 1:1 fit, one concentration (1000 nM). As for the experimental part:
as §1, §2, §3

Experiment [4] has as its target T1, murine FcγRIV. In words: SPR (Biacore T100, 25 °C); receptor captured on anti-Penta His, construct as analyte 500 - 4000 nM; steady state. On the procedure:
as §1, §2, §3

In experiment [5] the target is T2, human FcγRIIIa-V158. Described as above. As for the experimental part: as §1, §2, §3
For experiment [6], the target named is T3, human MCSP expressed on tumor cells (human, UniProt Q6UVK1 30-2322).
T3 construct: whole, on cells; On Colo-38, WM266-4, MV-3 or MDA-MB-435 cells, as named in each row; also called huMCSP; Melanoma-associated Chondroitin Sulfate Proteoglycan
T3 sequence (Q6UVK1 30-2322): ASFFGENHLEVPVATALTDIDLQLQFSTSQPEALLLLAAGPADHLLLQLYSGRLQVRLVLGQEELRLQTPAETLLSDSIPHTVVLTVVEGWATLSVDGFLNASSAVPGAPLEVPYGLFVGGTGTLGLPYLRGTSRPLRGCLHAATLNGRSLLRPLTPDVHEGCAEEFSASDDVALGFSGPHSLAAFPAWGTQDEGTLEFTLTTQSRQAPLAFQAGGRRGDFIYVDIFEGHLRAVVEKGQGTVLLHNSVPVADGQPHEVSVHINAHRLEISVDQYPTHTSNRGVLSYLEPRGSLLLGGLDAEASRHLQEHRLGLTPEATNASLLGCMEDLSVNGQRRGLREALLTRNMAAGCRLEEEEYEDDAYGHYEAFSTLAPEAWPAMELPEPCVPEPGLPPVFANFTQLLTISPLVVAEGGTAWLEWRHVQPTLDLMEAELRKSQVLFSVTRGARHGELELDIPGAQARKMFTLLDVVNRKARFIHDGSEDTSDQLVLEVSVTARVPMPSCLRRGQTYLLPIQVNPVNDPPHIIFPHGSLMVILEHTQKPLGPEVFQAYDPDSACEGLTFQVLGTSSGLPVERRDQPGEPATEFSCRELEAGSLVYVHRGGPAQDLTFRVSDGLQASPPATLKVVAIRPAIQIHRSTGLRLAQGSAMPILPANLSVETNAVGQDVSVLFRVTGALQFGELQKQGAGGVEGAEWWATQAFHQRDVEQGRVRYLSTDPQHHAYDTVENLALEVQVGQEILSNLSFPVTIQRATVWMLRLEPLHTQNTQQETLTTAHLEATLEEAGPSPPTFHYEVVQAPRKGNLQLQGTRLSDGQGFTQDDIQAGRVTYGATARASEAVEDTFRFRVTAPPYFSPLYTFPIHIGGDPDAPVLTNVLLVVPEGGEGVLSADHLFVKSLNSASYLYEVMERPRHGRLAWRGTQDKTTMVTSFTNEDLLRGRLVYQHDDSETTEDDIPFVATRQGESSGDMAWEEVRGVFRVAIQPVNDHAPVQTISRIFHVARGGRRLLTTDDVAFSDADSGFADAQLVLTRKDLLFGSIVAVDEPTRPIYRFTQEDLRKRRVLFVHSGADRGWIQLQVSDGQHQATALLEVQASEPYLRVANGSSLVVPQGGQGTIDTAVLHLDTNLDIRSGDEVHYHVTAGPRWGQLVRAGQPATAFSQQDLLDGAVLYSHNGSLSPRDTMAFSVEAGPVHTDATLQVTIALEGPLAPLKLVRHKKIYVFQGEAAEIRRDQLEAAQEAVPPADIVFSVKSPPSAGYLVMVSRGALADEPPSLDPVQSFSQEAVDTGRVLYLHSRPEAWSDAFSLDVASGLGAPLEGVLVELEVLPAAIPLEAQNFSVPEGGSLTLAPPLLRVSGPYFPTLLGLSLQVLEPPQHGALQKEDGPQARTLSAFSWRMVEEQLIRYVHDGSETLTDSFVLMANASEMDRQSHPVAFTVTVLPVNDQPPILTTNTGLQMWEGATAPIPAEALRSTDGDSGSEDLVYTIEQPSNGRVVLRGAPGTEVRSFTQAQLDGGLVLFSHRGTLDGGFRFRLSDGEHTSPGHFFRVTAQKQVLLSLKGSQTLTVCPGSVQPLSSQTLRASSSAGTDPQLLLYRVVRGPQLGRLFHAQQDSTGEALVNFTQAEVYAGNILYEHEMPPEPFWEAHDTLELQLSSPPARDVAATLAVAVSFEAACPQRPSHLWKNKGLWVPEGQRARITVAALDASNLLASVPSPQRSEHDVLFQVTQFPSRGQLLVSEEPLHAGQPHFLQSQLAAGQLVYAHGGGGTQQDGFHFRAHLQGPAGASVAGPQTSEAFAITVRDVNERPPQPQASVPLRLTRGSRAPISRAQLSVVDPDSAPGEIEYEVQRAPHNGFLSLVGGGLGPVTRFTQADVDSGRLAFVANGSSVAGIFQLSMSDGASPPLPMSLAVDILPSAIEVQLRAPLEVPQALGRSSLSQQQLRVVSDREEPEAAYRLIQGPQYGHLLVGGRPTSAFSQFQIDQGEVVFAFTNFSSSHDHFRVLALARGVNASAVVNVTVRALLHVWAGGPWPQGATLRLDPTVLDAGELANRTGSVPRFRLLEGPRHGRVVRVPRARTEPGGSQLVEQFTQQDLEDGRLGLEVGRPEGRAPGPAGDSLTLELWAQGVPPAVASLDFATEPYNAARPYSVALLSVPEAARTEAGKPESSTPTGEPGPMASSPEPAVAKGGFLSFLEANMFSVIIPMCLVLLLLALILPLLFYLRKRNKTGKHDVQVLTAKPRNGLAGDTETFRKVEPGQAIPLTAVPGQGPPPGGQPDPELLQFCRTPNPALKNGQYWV
In words: flow cytometry on Colo-38 cells, 50 nM. On the procedure: (§4) Binding of the different bispecific constructs to CD3 on Jurkat cells (ATCC #TIB-152), and the respective tumor antigen on target cells, was determined by FACS. Briefly, cells were harvested, counted and checked for viability. 0.15 - 0.2 million cells per well (in PBS containing 0.1% BSA; 90 µl) were plated in a round-bottom 96-well plate and incubated with the indicated concentration of the bispecific constructs and corresponding IgG controls (10 µl) for 30 min at 4° C. For a better comparison, all constructs and IgG controls were normalized to same molarity. After the incubation, cells were centrifuged (5 min, 350 × g), washed with 150 µl PBS containing 0.1% BSA, resuspended and incubated for further 30 min at 4° C. with 12 µl/well of a FITC-or PE-conjugated secondary antibody. Bound constructs were detected using a FACSCantoII (Software FACS Diva). The “(scFv)₂” molecule was detected using a FITC-conjugated anti-His antibody (Lucerna, #RHIS-45F-Z). For all other molecules, a FITC- or PE-conjugated AffiniPure F(ab′)2 Fragment goat anti-human IgG Fcγ Fragment Specific (Jackson Immuno Research Lab # 109-096-098 / working solution 1:20, or #109-116-170 / working solution 1:80, respectively) was used. Cells were washed by addition of 120 µl/well PBS containing 0.1% BSA and centrifugation at 350 × g for 5 min. A second washing step was performed with 150 µl/well PBS containing 0.1% BSA. Unless otherwise indicated, cells were fixed with 100 µl/well fixation buffer (BD #554655) for 15 min at 4° C. in the dark, centrifuged for 6 min at 400 × g and kept in 200 µl/well PBS containing 0.1% BSA until the samples were measured with FACS CantoII. EC50 values were calculated using the GraphPad Prism software.
(§5) In a first experiment, different bispecific constructs targeting human MCSP and human CD3 were analyzed by flow cytometry for binding to human CD3 expressed on Jurkat, human T cell leukaemia cells, or to human MCSP on Colo-38 human melanoma cells.

The target of experiment [7] is T4, human CD3 expressed on Jurkat cells (human, UniProt P07766 23-207).
T4 construct: CD3 complex on Jurkat cells (ATCC TIB-152); also called huCD3
T4 sequence (P07766 23-207 limits assumed): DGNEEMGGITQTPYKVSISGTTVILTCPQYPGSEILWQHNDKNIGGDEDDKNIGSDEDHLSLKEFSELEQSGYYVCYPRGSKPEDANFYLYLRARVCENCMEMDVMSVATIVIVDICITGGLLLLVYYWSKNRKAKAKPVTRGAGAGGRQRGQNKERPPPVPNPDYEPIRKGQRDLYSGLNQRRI
The experiment can be described thus: flow cytometry on Jurkat cells, 50 nM. On the procedure:
as §4, §5

Experiment [8] concerns the target T2, human FcγRIIIa-V158. In words: SPR (Biacore T100, 25 °C); receptor captured on anti-Penta His, construct as analyte; kinetic 1:1 fit, one concentration (1000 nM). On the procedure: as §1, §2, §3

T1 sequence (A0A0B4J1G0 21-203): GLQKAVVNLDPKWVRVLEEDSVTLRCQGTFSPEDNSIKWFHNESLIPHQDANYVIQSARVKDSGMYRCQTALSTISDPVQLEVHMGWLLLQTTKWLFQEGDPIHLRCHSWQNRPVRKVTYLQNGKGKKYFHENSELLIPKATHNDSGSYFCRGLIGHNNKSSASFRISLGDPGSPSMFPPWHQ

B1: “2+1 IgG scFab, wt” (anti-MCSP/anti-huCD3) (bispecific antibody)
heavy 1: not shown
heavy 2: not shown
light: DIVLTQSPSSLSASLGDRVTISCSASQGIRNYLNWYQQRPDGTVKLLIYYTSSLHSGVPSRFSGSGSGTDYSLTISNLEPEDIATYYCQQYSKLPWTFGGGTKLEIKRTVAAPSVFIFPPSDEQLKSGTASVVCLLNNFYPREAKVQWKVDNALQSGNSQESVTEQDSKDSTYSLSSTLTLSKADYEKHKVYACEVTHQGLSSPVTKSFNRGEC
notes: LC007 (MCSP, two Fabs) x V9 (CD3, one scFab); wild-type Fc domain with knob/hole; also called Fc-wt
As for B1, the Kd in the experiment with murine FcγRIV [1] is 576 nM; with human FcγRIIIa-V158 [2] it was 1200 nM; with human FcγRIIIa-V158 [3], 600 nM; with murine FcγRIV [4], 1500 nM; with human FcγRIIIa-V158 [5], 3470 nM.

B2: “2+1 IgG scFab, LALA” (anti-MCSP/anti-huCD3) (bispecific antibody)
heavy 1: not shown
heavy 2: EVQLQESGPGLVKPSQSLSLTCSVTGYSITSGYYWNWIRQFPGNKLEWMGYITYDGSNNYNPSLKNRISITRDTSKNQFFLKLNSVTTEDTATYYCADFDYWGQGTTLTVSSASTKGPSVFPLAPSSKSTSGGTAALGCLVKDYFPEPVTVSWNSGALTSGVHTFPAVLQSSGLYSLSSVVTVPSSSLGTQTYICNVNHKPSNTKVDKKVEPKSCDKTHTCPPCPAPEAAGGPSVFLFPPKPKDTLMISRTPEVTCVVVDVSHEDPEVKFNWYVDGVEVHNAKTKPREEQYNSTYRVVSVLTVLHQDWLNGKEYKCKVSNKALPAPIEKTISKAKGQPREPQVCTLPPSRDELTKNQVSLSCAVKGFYPSDIAVEWESNGQPENNYKTTPPVLDSDGSFFLVSKLTVDKSRWQQGNVFSCSVMHEALHNHYTQKSLSLSPGK
light: DIVLTQSPSSLSASLGDRVTISCSASQGIRNYLNWYQQRPDGTVKLLIYYTSSLHSGVPSRFSGSGSGTDYSLTISNLEPEDIATYYCQQYSKLPWTFGGGTKLEIKRTVAAPSVFIFPPSDEQLKSGTASVVCLLNNFYPREAKVQWKVDNALQSGNSQESVTEQDSKDSTYSLSSTLTLSKADYEKHKVYACEVTHQGLSSPVTKSFNRGEC
notes: also called Fc-LALA
Take B2: the binding result in experiment [6] and in experiment [7] was “binds” in each case. In the experiment with human FcγRIIIa-V158 [8], this molecule had a Kd of 2130 nM.
